# Results as given in publication PMC11322666, “UPF3B modulates endoplasmic reticulum stress through interaction with inositol-requiring enzyme-1α” (Cell Death & Disease, 2024).
# Assays:
# [1] = biological target: T1, IRE1α^S724A (human, UniProt O75460 19-977, S724A); assay: co-IP; lysates of transfected HEK293T or U2OS cells (24 h) in NETN buffer (20 mM Tris-HCl pH 8.0, 100 mM NaCl, 1 mM EDTA, 0.5% NP-40), IP with anti-Flag (M2) magnetic beads or the indicated antibodies, western blot; Fig. 3G two-way; details: partners not purified
# T1 construct: IRE1α, human, point mutant; source: HEK293T and U2OS, transfected, in lysate
# [2] = biological target: T2, inositol-requiring enzyme-1α (IRE1α), endogenous (human (endogenous in HEK293T and U2OS), UniProt O75460 19-977); assay: co-IP; endogenous proteins, lysates of HEK293T and U2OS cells, IP with the indicated antibodies (anti-IRE1α), IgG as negative control; also with RNase A pre-treatment of lysates, in shUPF1 and shUPF2 cells, after STF-083010 or Kira6 (10 or 50 μM, 6 h), BiP overexpression, siBiP, UPF3B overexpression; details: partners not purified
# T2 construct: inositol-requiring enzyme-1α (IRE1α), endogenous in HEK293T and U2OS cells; source: endogenous, HEK293T and U2OS lysates
# T2 sequence (O75460 19-977): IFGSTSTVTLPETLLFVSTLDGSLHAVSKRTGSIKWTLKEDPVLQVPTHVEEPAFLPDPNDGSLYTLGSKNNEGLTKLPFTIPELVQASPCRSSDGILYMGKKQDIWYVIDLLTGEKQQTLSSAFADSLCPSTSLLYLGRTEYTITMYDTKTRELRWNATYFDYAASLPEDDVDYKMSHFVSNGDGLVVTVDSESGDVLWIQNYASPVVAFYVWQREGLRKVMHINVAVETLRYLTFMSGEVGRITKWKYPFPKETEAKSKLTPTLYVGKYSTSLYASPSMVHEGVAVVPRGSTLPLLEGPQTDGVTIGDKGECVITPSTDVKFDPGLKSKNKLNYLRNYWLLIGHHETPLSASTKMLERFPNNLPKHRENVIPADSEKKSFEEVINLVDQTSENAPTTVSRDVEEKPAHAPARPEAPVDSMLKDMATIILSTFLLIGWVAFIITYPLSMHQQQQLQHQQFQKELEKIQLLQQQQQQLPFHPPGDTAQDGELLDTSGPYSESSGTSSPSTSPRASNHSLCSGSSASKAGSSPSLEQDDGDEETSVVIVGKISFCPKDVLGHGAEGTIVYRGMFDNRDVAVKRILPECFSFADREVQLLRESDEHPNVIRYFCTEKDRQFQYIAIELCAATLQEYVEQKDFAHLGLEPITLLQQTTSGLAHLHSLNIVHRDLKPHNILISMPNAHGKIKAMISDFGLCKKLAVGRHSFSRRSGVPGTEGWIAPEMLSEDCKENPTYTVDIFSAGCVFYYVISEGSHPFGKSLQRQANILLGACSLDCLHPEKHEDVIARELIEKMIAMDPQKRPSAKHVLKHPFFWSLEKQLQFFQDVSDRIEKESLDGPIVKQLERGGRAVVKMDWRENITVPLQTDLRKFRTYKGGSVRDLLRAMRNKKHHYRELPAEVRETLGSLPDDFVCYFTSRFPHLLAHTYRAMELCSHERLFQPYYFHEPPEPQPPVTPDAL
# T1 sequence (O75460 19-977 S724A): as the sequence (O75460 19-977) above, with S706A counted along it
binder,measurement,setting,value
"UPF3B, endogenous (natural protein, human (endogenous in HEK293T and U2OS), UniProt Q9BZI7 1-483, looked up, UPF3B, endogenous in HEK293T and U2OS cells; also called up-frameshift 3B; source: endogenous, HEK293T and U2OS lysates) MKEEKEHRPKEKRVTLLTPAGATGSGGGTSGDSSKGEDKQDRNKEKKEALSKVVIRRLPPTLTKEQLQEHLQPMPEHDYFEFFSNDTSLYPHMYARAYINFKNQEDIILFRDRFDGYVFLDNKGQEYPAIVEFAPFQKAAKKKTKKRDTKVGTIDDDPEYRKFLESYATDNEKMTSTPETLLEEIEAKNRELIAKKTTPLLSFLKNKQRMREEKREERRRREIERKRQREEERRKWKEEEKRKRKDIEKLKKIDRIPERDKLKDEPKIKVHRFLLQAVNQKNLLKKPEKGDEKELDKREKAKKLDKENLSDERASGQSCTLPKRSDSELKDEKPKRPEDESGRDYREREREYERDQERILRERERLKRQEEERRRQKERYEKEKTFKRKEEEMKKEKDTLRDKGKKAESTESIGSSEKTEKKEEVVKRDRIRNKDRPAMQLYQPGARSRNRLCPPDDSTKSGDSAAERKQESGISHRKEGGEE",fold change of the co-precipitate against IRE1α^WT,[1],3.2 fold
same,fold change of the co-precipitate in Kira6-treated against control cells,[2],3.9 fold
